In article PMC5028754, “Structural studies of the yeast DNA damage-inducible protein Ddi1 reveal domain architecture of this eukaryotic protein family” (Scientific Reports, 2016):

B1: Ddi1 RVP (residues 185-325) (domain or fragment, S. cerevisiae, UniProt P40087 185-325, looked up)
chain: EQLRNAIEYTPEMFTQVPMLYINIEINNYPVKAFVDTGAQTTIMSTRLAKKTGLSRMIDKRFIGEARGVGTGKIIGRIHQAQVKIETQYIPCSFTVLDTDIDVLIGLDMLKRHLACVDLKENVLRIAEVETSFLSEAEIPK
notes: MALDI-TOF 16,320 Da (predicted 16,313 Da); also called RVP domain; Ddi1 retroviral protease-like domain; source: E. coli BL21(DE3), purified (glutathione-sepharose, 3C cleavage, gel filtration); not shown: GST, N-terminal, cleaved
B2: Ddi1 RVP-UBA (180-428) (domain or fragment, S. cerevisiae, UniProt P40087 180-428, looked up)
chain: QQAIDEQLRNAIEYTPEMFTQVPMLYINIEINNYPVKAFVDTGAQTTIMSTRLAKKTGLSRMIDKRFIGEARGVGTGKIIGRIHQAQVKIETQYIPCSFTVLDTDIDVLIGLDMLKRHLACVDLKENVLRIAEVETSFLSEAEIPKSFQEGLPAPTSVTTSSDKPLTPTKTSSTLPPQPGAVPALAPRTGMGPTPTGRSTAGATTATGRTFPEQTIKQLMDLGFPRDAVVKALKQTNGNAEFAASLLFQ
notes: Ddi1 of Saccharomyces cerevisiae, residues 180-428 (RVP to UBA, lacks the UBL), cloned into pET16b; Contains the RVP domain; also called RVP-UBA construct (without the UBL)
B3: Ddi1 UBL-RVP (1-325) (domain or fragment, S. cerevisiae, UniProt P40087 1-325, looked up)
chain: MDLTISNELTGEIYGPIEVSEDMALTDLIALLQADCGFDKTKHDLYYNMDILDSNRTQSLKELGLKTDDLLLIRGKISNSIQTDAATLSDEAFIEQFRQELLNNQMLRSQLILQIPGLNDLVNDPLLFRERLGPLILQRRYGGYNTAMNPFGIPQDEYTRLMANPDDPDNKKRIAELLDQQAIDEQLRNAIEYTPEMFTQVPMLYINIEINNYPVKAFVDTGAQTTIMSTRLAKKTGLSRMIDKRFIGEARGVGTGKIIGRIHQAQVKIETQYIPCSFTVLDTDIDVLIGLDMLKRHLACVDLKENVLRIAEVETSFLSEAEIPK
notes: Contains the RVP domain; also called UBL-RVP construct (without the UBA)
B4: full-length yeast Ddi1 (natural protein, S. cerevisiae, UniProt P40087 1-428, looked up)
chain: MDLTISNELTGEIYGPIEVSEDMALTDLIALLQADCGFDKTKHDLYYNMDILDSNRTQSLKELGLKTDDLLLIRGKISNSIQTDAATLSDEAFIEQFRQELLNNQMLRSQLILQIPGLNDLVNDPLLFRERLGPLILQRRYGGYNTAMNPFGIPQDEYTRLMANPDDPDNKKRIAELLDQQAIDEQLRNAIEYTPEMFTQVPMLYINIEINNYPVKAFVDTGAQTTIMSTRLAKKTGLSRMIDKRFIGEARGVGTGKIIGRIHQAQVKIETQYIPCSFTVLDTDIDVLIGLDMLKRHLACVDLKENVLRIAEVETSFLSEAEIPKSFQEGLPAPTSVTTSSDKPLTPTKTSSTLPPQPGAVPALAPRTGMGPTPTGRSTAGATTATGRTFPEQTIKQLMDLGFPRDAVVKALKQTNGNAEFAASLLFQ
notes: Ddi1 of Saccharomyces cerevisiae, full length, cloned into pET16b; ITC concentration calculated to monomer; also called Ddi1 FL; DNA damage-inducible protein Ddi1

How the values were obtained:
[1] = molecular target: the molecule itself; test: crystal structure; Ddi1 RVP 185-325, 1.8 Å; crystallized in 0.1 M phosphate-citrate, pH 4.2, 0.4 M NaCl, 20% PEG 8000; two chains in the asymmetric unit
bovine ubiquitin = molecular target: T1, bovine ubiquitin (bovine, UniProt P0CG53 1-76); test: ITC; ubiquitin or K48-Ub2 injected from the syringe into the Ddi1 construct in the sample cell; 50 mM HEPES, pH 7.4, 150 mM NaCl, 25 °C; VP-ITC; one-site model varying N, Kd and ΔH; full-length Ddi1 with ubiquitin also fitted to a two-sites model with N fixed to 1.0; settings: both partners purified
T1 construct: ubiquitin, bovine (cut product of the ubiquitin precursors); source: bought: Sigma, cat. no; U6253

| Binder | stoichiometry N [1] | Kd (bovine ubiquitin) [µM] |
| --- | --- | --- |
| B1 | 2 | – |
| B2 | – | 43 |
| B3 | – | 310 |
| B4 | – | 320 |
